For one assay, the target named is T1, 127-tag peptide (Homo sapiens CXCR2 (synthetic peptide)).
T1 construct: numbers count on: the peptide; the printed residues Ser1', Phe2', Glu3', Phe5', Trp6', Lys7', Asp10' fit this; source: synthetic peptide
T1 chain: SFEDFWKGED
Kind of assay: SPR; biotinylated Nb (1 uM) captured on a streptavidin (SA) chip to about 2000 RU; peptide as analyte, 50 ul/min, 60 s contact, 120 s dissociation; 1X PBS pH 7.4 plus 0.05% P20; Biacore T200; 1:1 kinetics binding model, local fittings. The note with it: both partners purified.

In assay [1] the target is T2, 6E-WT peptide (Homo sapiens UBE2J1 (UBC6e; synthetic …, UniProt Q9Y385).
T2 construct: Leu at position 9; numbers count on: the peptide; the printed E5 and L9 fit this; also called 6E-L9 (WT); 6E peptide; source: synthetic peptide
T2 chain: QADQEAKELARQIS
The assay is described as above. The settings on record: both partners purified.

Assay [2] has as its target T2, 6E-WT peptide. Kind of assay: flow cytometry on cells; competition: HEK293 cells stably expressing A2AR-Nb6E-ALFA with unlabeled variant 6E peptides (10–0.01 uM) and 10 nM FAM-6E-C14 for 30 m in 2% BSA in PBS; antifluorescein antibody-AF647; median fluorescence intensity. The settings on record: one partner purified.

B1: Nb127–biotin (VHH)
VHH: EVQLVESGGGLVQAGESLRLSCAASGSTFDFKVMGWYRQPPGKQREGVAAIRLSGNMHYAESVKGRFAISKANAKNTVYLQMNSLRPEDTAVYYCKVNIRGQDYWGQGTQVTVSS
notes: as the chain of m1; Sortagging probably removes the His6 tag; also called biotinylated Nb127; source: bacterial expression (pET26b, pelB), purified; labelled by sortagging (Sortase 5M), Ni-NTA and PD10
In the case of B1, in the assay with 127-tag peptide, the Kd came out at 14 nM.

B2: Nb6E-biotin (VHH)
VHH: QVQLQESGGGLVQPGGSLRLSCAASGFVFENSAMAWYRQAPGKERELIAVIGTTFIKLAESVKGRFTISRDNAKSTVYLQMNNLKPEDTAVYYCSKSGAYWGQGTQVTVSS
notes: as the chain of m13; Sortagging probably removes the His6 tag; also called biotinylated Nb6E; source: bacterial expression (pET26b, pelB), purified; labelled by sortagging (Sortase 5M), Ni-NTA and PD10
Consider B2, for which the binding result with 6E-WT peptide [1] is given as “binds”.

B3: A2AR-Nb6E-ALFA (VHH)
VHH: QVQLQESGGGLVQPGGSLRLSCAASGFVFENSAMAWYRQAPGKERELIAVIGTTFIKLAESVKGRFTISRDNAKSTVYLQMNNLKPEDTAVYYCSKSGAYWGQGTQVTVSS
notes: as the chain of m13 (Nb6E); also called cell surface protein fused with Nb6E; source: HEK293 cells, stably expressing, on cells
B3: in the assay with 6E-WT peptide [2], the binding result is given as “binds”.

Values taken from publication PMC12212259, “Evaluation of AlphaFold modeling for elucidation of nanobody–peptide epitope interactions” (The Journal of Biological Chemistry, 2025).
